We go through 5 molecules from US20200109188A1 (AstraZeneca / MedImmune, published 2020).

In experiment [1] the target is HA of A/New Jersey/8/76 (H1N1) virus (influenza A virus). The experiment can be described thus: cell-based or functional assay.
Experiment [2] deals with HA of ca A/Japan/57 (H2N2) virus (influenza A virus). Put plainly: cell-based or functional assay.
In experiment [3] the target is HA of ca A/swine/Missouri/06 (H2N3) virus (influenza A virus). The experiment can be described thus: cell-based or functional assay.
Experiment [4] has as its target HA of ca A/Vietnam/1203/04 (H5N1) virus (influenza A virus). The experiment can be described thus: cell-based or functional assay.
For experiment [5], the target named is HA of ca A/Hong Kong/213/03 (H5N1) virus (influenza A virus). The experiment can be described thus: cell-based or functional assay.
In experiment [6] the target is HA of ca A/mallard/Alberta/89/85 (H6N2) virus (influenza A virus). The experiment can be described thus: cell-based or functional assay.
In experiment [7] the target is HA of ca A/teal/Hong Kong/W312/97 (H6N1) virus (influenza A virus). The experiment can be described thus: cell-based or functional assay.
Experiment [8] has as its target HA of ca A/chicken/Hong Kong/G9/97 (H9N2) virus (influenza A virus). The experiment can be described thus: cell-based or functional assay.
Experiment [9] has as its target HA of ca A/Netherlands/219/03 (H7N7) virus (influenza A virus). The experiment can be described thus: cell-based or functional assay.
In experiment [10] the target is HA of ca A/Brit. Columbia/CN-6/04 (H7N3-LP) virus (influenza A virus). The experiment can be described thus: cell-based or functional assay.
In experiment [11] the target is HA of ca A/Anhui/1/13 (H7N9) virus (influenza A virus). Put plainly: cell-based or functional assay.
The target of experiment [12] is HA subtype H4 (A/duck/Czechoslovakia/56 (H4N6)) on HEK cells (influenza A virus, UniProt P19696 17-564). Put plainly: flow cytometry, HA-transfected HEK cells, 5 ug/ml antibody. On the technique in general: In flow cytometry, cells or beads pass a laser one at a time.
HA subtype H4 (A/duck/Czechoslovakia/56 (H4N6)) on HEK cells, sequence (P19696 17-564): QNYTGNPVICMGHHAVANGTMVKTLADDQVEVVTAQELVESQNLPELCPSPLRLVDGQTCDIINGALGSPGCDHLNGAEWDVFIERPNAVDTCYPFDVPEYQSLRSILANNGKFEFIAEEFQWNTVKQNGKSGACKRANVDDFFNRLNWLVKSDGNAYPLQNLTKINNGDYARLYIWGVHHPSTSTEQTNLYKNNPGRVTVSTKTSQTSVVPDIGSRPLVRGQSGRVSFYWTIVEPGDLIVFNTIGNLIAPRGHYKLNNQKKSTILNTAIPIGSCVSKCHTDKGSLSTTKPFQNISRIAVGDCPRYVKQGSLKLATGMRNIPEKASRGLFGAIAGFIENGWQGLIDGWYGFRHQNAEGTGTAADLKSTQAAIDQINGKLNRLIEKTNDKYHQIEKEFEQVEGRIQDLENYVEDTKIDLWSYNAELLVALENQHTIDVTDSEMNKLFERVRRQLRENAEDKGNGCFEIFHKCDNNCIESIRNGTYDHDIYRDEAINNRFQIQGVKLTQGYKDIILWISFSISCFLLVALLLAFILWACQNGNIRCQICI
For experiment [13], the target named is HA subtype H10 (A/chicken/Germany/N49 (H10N7)) on HEK cells (influenza A virus, UniProt P12581 17-561). The description is as above.
HA subtype H10 (A/chicken/Germany/N49 (H10N7)) on HEK cells, sequence (P12581 17-561): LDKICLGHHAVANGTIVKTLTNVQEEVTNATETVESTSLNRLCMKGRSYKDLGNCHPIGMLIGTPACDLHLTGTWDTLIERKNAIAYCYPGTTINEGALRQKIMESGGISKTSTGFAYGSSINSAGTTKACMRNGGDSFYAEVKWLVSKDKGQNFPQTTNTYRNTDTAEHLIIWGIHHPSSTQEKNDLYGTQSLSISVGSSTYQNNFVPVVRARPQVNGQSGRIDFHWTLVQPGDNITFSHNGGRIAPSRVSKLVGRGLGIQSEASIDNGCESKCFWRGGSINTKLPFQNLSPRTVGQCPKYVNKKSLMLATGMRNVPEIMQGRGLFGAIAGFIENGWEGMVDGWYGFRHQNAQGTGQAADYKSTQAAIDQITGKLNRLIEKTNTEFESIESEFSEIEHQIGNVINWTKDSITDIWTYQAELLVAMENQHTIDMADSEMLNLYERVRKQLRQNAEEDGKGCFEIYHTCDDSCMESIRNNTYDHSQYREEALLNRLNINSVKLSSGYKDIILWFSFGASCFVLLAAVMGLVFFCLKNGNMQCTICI
Experiment [14] concerns the target HA subtype H12 (A/duck/Alberta/60/76 (H12N5)) on HEK cells (influenza A virus, UniProt P03446 17-564). Described as above.
Experiment [15] concerns the target HA subtype H13 (A/gull/Maryland/704/77 (H13N6)) on HEK cells (influenza A virus, UniProt P13103 19-566). Described as above.
For experiment [16], the target named is HA subtype H14 (A/mallard/Astrakhan/263/82 (H14N5)) on HEK cells (influenza A virus, UniProt P26136 18-568). Described as above.
HA subtype H14 (A/mallard/Astrakhan/263/82 (H14N5)) on HEK cells, sequence (P26136 18-568): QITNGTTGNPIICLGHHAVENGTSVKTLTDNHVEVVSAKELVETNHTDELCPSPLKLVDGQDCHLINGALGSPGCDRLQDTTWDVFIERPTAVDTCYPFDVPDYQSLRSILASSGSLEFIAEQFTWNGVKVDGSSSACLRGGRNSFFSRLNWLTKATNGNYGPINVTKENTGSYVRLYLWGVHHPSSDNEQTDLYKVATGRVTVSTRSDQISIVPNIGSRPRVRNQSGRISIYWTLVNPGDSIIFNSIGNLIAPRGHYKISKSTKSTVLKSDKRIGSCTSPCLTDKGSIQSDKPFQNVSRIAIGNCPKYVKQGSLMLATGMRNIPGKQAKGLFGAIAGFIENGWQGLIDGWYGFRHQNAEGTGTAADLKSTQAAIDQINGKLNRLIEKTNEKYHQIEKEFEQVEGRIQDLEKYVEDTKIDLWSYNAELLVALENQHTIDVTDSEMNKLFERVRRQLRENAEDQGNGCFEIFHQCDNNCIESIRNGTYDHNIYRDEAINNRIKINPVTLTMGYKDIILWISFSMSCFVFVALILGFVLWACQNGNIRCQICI

HA subtype H13 (A/gull/Maryland/704/77 (H13N6)) on HEK cells, sequence (P13103 19-566): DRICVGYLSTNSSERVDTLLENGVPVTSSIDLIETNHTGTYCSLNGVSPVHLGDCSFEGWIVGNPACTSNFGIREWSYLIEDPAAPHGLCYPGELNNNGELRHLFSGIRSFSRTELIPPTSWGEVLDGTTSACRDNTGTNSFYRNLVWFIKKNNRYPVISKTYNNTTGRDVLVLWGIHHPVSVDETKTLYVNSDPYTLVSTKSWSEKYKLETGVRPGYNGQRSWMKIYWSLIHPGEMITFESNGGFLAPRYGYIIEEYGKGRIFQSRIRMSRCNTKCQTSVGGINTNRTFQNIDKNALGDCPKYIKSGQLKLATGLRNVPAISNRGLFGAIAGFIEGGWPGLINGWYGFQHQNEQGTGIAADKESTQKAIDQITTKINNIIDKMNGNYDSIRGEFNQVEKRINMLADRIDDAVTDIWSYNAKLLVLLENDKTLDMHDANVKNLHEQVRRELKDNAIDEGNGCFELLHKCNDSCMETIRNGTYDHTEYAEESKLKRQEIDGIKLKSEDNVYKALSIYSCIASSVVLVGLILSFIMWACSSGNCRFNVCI
HA subtype H12 (A/duck/Alberta/60/76 (H12N5)) on HEK cells, sequence (P03446 17-564): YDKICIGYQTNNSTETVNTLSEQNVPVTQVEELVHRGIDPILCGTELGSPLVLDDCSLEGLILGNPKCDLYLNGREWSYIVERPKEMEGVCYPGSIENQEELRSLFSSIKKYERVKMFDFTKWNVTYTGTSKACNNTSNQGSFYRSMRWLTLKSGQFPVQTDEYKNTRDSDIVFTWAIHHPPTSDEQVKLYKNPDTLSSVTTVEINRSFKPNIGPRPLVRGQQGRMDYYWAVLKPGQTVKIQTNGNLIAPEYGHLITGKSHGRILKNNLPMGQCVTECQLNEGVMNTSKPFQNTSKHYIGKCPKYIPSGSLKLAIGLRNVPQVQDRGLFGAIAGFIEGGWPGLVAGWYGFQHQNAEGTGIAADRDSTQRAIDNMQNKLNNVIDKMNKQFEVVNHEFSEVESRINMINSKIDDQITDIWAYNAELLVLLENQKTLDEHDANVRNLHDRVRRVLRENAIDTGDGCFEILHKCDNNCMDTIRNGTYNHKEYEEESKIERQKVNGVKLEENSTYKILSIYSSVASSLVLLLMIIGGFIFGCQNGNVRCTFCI

B1: Antibody 11 (antibody, V domains shown)
VH: QVQLQQSGPGLVKPSQTLSLTCAISGDSVSSYNAVWNWIRQSPSRGLEWLGRTYYRSGWYNDYAESVKSRITINPDTSKNQFSLQLNSVTPEDTAVYYCARSGHITVFGVNVDAFDMWGQGTMVTVSS
VL: DIQMTQSPSSLSASVGDRVTITCRTSQSLSSYTHWYQQKPGKAPKLLIYAASSRLSGVPSRFSGSGSGTDFTLTISSLQPEDFATYYCQQSRTFGQGTKVEIK
Take B1: in experiment [1], the “Neutralization IC50, H1-NJ76” value is 0.13 µg/mL. Besides, in experiment [2], the “Neutralization IC50, H2-JP57” value came to 0.31 µg/mL. Further, the “Neutralization IC50, H2-MO06” value in experiment [3] was determined as 0.6 µg/mL. For the same molecule, the “Neutralization IC50, H5-VM04” value in [4] was determined as 0.57 µg/mL. In experiment [5], the “Neutralization IC50, H5-HK03” value turned out to be 0.21 µg/mL. Moreover, the “Neutralization IC50, H6-AB85” value in [6] came out at 0.24 µg/mL. Moreover, the “Neutralization IC50, H6-HK97” value in experiment [7] is 0.4 µg/mL. Also, in [8], the “Neutralization IC50, H9-HK97” value is 0.36 µg/mL. Moreover, the “Neutralization IC50, H7-NLD03” value in experiment [9] is 0.94 µg/mL. Further, the “Neutralization IC50, H7-BC04” value in [10] came to 0.71 µg/mL.

B2: Antibody 14 (antibody, V domains shown)
VH: QVQLQQSGPGLVKPSQTLSLTCAISGDSVSSNNAVWNWIRQSPSRGLEWLGRTYYRSKWYNDYAESVKSRITINPDTSKNQFSLQLNSVTPEDTAVYYCARSGHITVFGVNVDAFDMWGQGTTVTVSS
VL: DIQMTQSPSSLSASVGDRVTITCRTSQSLSSYTHWYQQKPGKAPKLLIYAASSRLSGVPSRFSGSGSGTDFTLTISSLQPEDFATYYCQQSRTFGQGTKVEIK
On to B2, for which the “Neutralization IC50, H1-NJ76” value in experiment [1] was determined as 0.11 µg/mL. For the same molecule, the “Neutralization IC50, H2-JP57” value in experiment [2] came out at 0.67 µg/mL. The “Neutralization IC50, H2-MO06” value in [3] was found to be 0.65 µg/mL. Further, in experiment [4], the “Neutralization IC50, H5-VM04” value is 0.33 µg/mL. For the same molecule, in experiment [5], the “Neutralization IC50, H5-HK03” value was determined as 0.21 µg/mL. In addition, in [6], the “Neutralization IC50, H6-AB85” value amounted to 0.26 µg/mL. For the same molecule, the “Neutralization IC50, H6-HK97” value in [7] was found to be 0.26 µg/mL. Besides, the “Neutralization IC50, H9-HK97” value in experiment [8] stood at 0.44 µg/mL. For the same molecule, the “Neutralization IC50, H7-NLD03” value in experiment [9] was found to be 1.16 µg/mL. In addition, the “Neutralization IC50, H7-BC04” value in experiment [10] came to 0.86 µg/mL. Further, the “Neutralization IC50, H7-ANU13” value in experiment [11] is 2.12 µg/mL.

B3: Antibody 15 (antibody, V domains shown)
VH: QVQLQQSGPGLVKPSQTLSLTCAISGDSVSSNNAVWNWIRQSPSRGLEWLGRTYYRSKWYNDYAESVKSRITINPDTSKNQFSLQLNSVTPEDTAVYYCARSGHITVFGVNVDAFDMWGQGTTVTVSS
VL: DIQMTQSPSSLSASVGDRVTITCRTSQSLSSYTHWYQQKPGKAPKLLIYAASSRGSGVPSRFSGSGSGTDFTLTISSLQPEDFATYYCQQSRTFGQGTKVEIK
As for B3, the “Neutralization IC50, H1-NJ76” value in [1] came to 0.25 µg/mL. Besides, in experiment [2], the “Neutralization IC50, H2-JP57” value amounted to 0.33 µg/mL. In addition, the “Neutralization IC50, H2-MO06” value in experiment [3] turned out to be 0.83 µg/mL. Besides, the “Neutralization IC50, H5-VM04” value in [4] is 0.28 µg/mL. Also, the “Neutralization IC50, H5-HK03” value in experiment [5] stood at 0.05 µg/mL. For the same molecule, the “Neutralization IC50, H6-AB85” value in experiment [6] came to 0.19 µg/mL. Moreover, in experiment [7], the “Neutralization IC50, H6-HK97” value came out at 0.33 µg/mL. For the same molecule, the “Neutralization IC50, H9-HK97” value in experiment [8] was 0.35 µg/mL. For the same molecule, in experiment [9], the “Neutralization IC50, H7-NLD03” value stood at 1.3 µg/mL. For the same molecule, the “Neutralization IC50, H7-BC04” value in experiment [10] came out at 1.25 µg/mL.

B4: Antibody 13 (antibody, V domains shown)
VH: QVQLQQSGPGLVKPSQTLSLTCAISGDSVSSYNAVWNWIRQSPSRGLEWLGRTYYRSGWYNDYAESVKSRITINPDTSKNQFSLQLNSVTPEDTAVYYCARSGHITVFGVNVDAFDMWGQGTMVTVSS
VL: DIQMTQSPSSLSASVGDRVTITCRTSQSLSSYDHWYQQKPGKAPKLLIYAASSRLSGVPSRFSGSGSGTDFTLTISSLQPEDFATYYCQQSRTFGQGTKVEIK
B4: the “Neutralization IC50, H1-NJ76” value in experiment [1] was found to be 0.12 µg/mL. Besides, in experiment [2], the “Neutralization IC50, H2-JP57” value is 0.47 µg/mL. Besides, in experiment [3], the “Neutralization IC50, H2-MO06” value was 0.57 µg/mL. Also, the “Neutralization IC50, H5-VM04” value in experiment [4] worked out at 0.56 µg/mL. The “Neutralization IC50, H5-HK03” value in experiment [5] stood at 0.17 µg/mL. For the same molecule, the “Neutralization IC50, H6-AB85” value in experiment [6] is 0.29 µg/mL. The “Neutralization IC50, H6-HK97” value in experiment [7] came out at 0.55 µg/mL. The “Neutralization IC50, H9-HK97” value in [8] is 0.29 µg/mL. Also, in [9], the “Neutralization IC50, H7-NLD03” value is 2.45 µg/mL. Moreover, the “Neutralization IC50, H7-BC04” value in [10] is 0.96 µg/mL.

B5: Antibody 12 (antibody, V domains shown)
VH: QVQLQQSGPGLVKPSQTLSLTCAISGDSVSSYNAVWNWIRQSPSRGLEWLGRTYYRSGWYNDYAESVKSRITINPDTSKNQFSLQLNSVTPEDTAVYYCARSGHITVFGVNVDAFDMWGQGTMVTVSS
VL: DIQMTQSPSSLSASVGDRVTITCRTSQSLSSYTHWYQQKPGKAPKLLIYAASSRGSGVPSRFSGSGSGTDFTLTISSLQPEDFATYYCQQSRTFGQGTKVEIK
On to B5, for which, in [1], the “Neutralization IC50, H1-NJ76” value worked out at 0.12 µg/mL. Also, in [2], the “Neutralization IC50, H2-JP57” value was found to be 0.35 µg/mL. In experiment [3], the “Neutralization IC50, H2-MO06” value stood at 0.53 µg/mL. Besides, in experiment [4], the “Neutralization IC50, H5-VM04” value amounted to 0.31 µg/mL. The “Neutralization IC50, H5-HK03” value in [5] was found to be 0.17 µg/mL. Besides, the “Neutralization IC50, H6-AB85” value in experiment [6] was determined as 0.32 µg/mL. The “Neutralization IC50, H6-HK97” value in [7] amounted to 0.45 µg/mL. Besides, the “Neutralization IC50, H9-HK97” value in experiment [8] was found to be 0.31 µg/mL. The “Neutralization IC50, H7-NLD03” value in experiment [9] was found to be 0.83 µg/mL. The “Neutralization IC50, H7-BC04” value in experiment [10] was 0.78 µg/mL. For the same molecule, the “Neutralization IC50, H7-ANU13” value in experiment [11] is 2.56 µg/mL. Besides, the binding result in [12], in [13], in experiment [14], in [15] and in experiment [16] was “binds” throughout.
